# From patent publication US20210032353A1 (NATIONAL HEALTH RESEARCH INSTITUTES, published 2021)
# T1: R3-IgD4 (human, UniProt P35916)
# T1 construct: recombinant fragment; also called immunoglobin-like domain 4 of VEGFR3
# T1 sequence (receptor fragment, looked up): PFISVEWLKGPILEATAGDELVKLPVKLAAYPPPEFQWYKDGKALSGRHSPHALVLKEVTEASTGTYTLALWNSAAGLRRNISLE
# T2: R3-IgD7 (human, UniProt P35916)
# T2 construct: recombinant fragment; also called immunoglobin-like domain 7 of VEGFR3
# T2 sequence (receptor fragment, looked up): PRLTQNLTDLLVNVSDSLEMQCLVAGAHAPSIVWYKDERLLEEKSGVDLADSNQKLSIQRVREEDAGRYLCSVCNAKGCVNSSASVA
# T3: VEGFR3 IgD5 (individual recombinant immunoglobin-like domain 5 of VEGFR3) (UniProt P35916 422-552, limits assumed)
# T3 construct: domain: IgD5
# T3 sequence (looked up): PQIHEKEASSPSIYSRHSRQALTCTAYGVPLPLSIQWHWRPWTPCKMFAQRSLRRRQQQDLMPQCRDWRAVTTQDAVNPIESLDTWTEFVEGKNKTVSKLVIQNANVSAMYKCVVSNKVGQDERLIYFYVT
# How the values were obtained:
# R2-IgD4-5 = biological target: T4, R2-IgD4-5 (human, UniProt P35968); test: cell-based competitive ELISA: R2C9-11 absorbed with the soluble domains, then bound to fixed 293T/VEGFR2 cells, OD405
# T4 construct: recombinant fragment; also called immunoglobin-like domains 4-5 of VEGFR2
# T4 sequence (P35968 328-548 limits assumed): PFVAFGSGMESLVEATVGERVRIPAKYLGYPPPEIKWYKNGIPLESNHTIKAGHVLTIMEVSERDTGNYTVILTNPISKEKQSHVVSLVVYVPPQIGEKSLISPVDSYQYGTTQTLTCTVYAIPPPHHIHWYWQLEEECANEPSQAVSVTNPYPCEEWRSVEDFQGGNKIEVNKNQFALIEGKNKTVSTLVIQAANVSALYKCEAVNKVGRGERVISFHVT
# Procedure: The optimal concentration of R2C7-1 and R2C9-11 mAbs (200 μg/mL and 50 μg/mL, respectively) were absorbed with the designated doses of the individual immunoglobin-like domains of VEGFR2 (R2-IgDs) antigens. After, the fixed 293T/VEGFR2 cells were incubated with the absorbed antibodies at 37° C. for 30 min. The bound antibodies were probed with goat-anti-mouse IgG conjugated with HRP, visualized by addition of ABTS, and measured at OD₄₀₅ using the SpectraMax microplate reader. Data are represented as means±S.D. of the percentage of isotype control (CTL) in triplicate. The potential epitope locations of R2C7-1 (upper) and R2C9-11 (lower) on the VEGFR2 antigen are indicated by black lines spanning IgD6 and IgD7 in the schematics.
# To define the recognition epitopes of R2C7-1 and R2C9-11 antibodies, cell-based competitive enzyme-linked immunosorbent assay (ELISA) was performed. HEK293T/VEGFR2 transfectants (5 X×10⁴/well) were coated and fixed on 96-well plates. The optimal concentrations, the highest concentration of the log phase, of R2C7-1 and R2C9-11 antibodies for binding to the cells, were determined using a standard ELISA procedure (data not shown). […]
# The epitopes of R2C7-1 and R2C9-11 anti-VEGFR2 antibodies were determined by cell-based competitive ELISA. […]
# R3-IgD4 = biological target: T1, R3-IgD4; test: cell-based competitive ELISA: R2C9-11 absorbed with the soluble domain, then bound to 293T/VEGFR3 cells, OD405
# Procedure: (§1) Panel A, Cell-based competitive. ELISA. HEK293T cells expressing VEGFR3 (293T/VEGFR3) were coated in 96-well plates. The optimal concentrations of R2C7-1 and R2C9-11 mAbs were determined as described previously (data now shown). The optimal concentrations of R2C7-1 and R2C9-11 mAbs were absorbed with the designed doses of the individual immunoglobin-like domains of VEGFR3 (R3-IgDs) antigens, as indicated. The bound antibodies were immune-probed with secondary antibody conjugated with HRP, visualized by addition of ABTS, and measured at OD₄₀₅ using a microplate reader (SpectraMax). Data are represented as means±S.D. of percentage of isotype control (CTL) in triplicate. The epitope locations of R2C7-1 and R2C9-11 on the VEGFR3 antigen are indicated by the black lines spanning IgD6 in the schematics. Panel B, Native gel electrophoresis. The whole extracellular domain (R3-IgD1-7), domain 3-4 (R3-IgD3-4) and domain 6-7 (R3-IgD6-7) were constructed, expressed in the E. coli, and purified using the anti-Myc affinity purification system. The purity and molecular weight of each recombinant protein were visualized with a standard Western blot using anti-Myc antibody as probe (left). The binding of R2C7-1 and R2C9-11 to the VEGFR3 truncated antigens was evaluated with native gel electrophoresis to confirm the epitopes of R2C7-1 and R2C9-11 mAbs (middle and right, respectively).
# (§2) The same methodology was adopted to define the epitopes of the antibodies on VEGFR3. To determine the optimal concentrations of the antibodies for VEGFR3, HEK293T/VEGFR3 transfectants were used as targets (data not shown). Subsequently, the antibodies with optimal concentrations were absorbed with individual recombinant extracellular domains of VEGFR3 (R3-IgDs) for competing the binding epitopes. Similarly, their major epitopes were both located in IgD6, but not in IgD7, of VEGFR3. To conform this finding, Western blotting analysis of different recombinant IgD proteins was carried out using native gel electrophoresis.
# R3-IgD7 = biological target: T2, R3-IgD7; test: as above
# Procedure: as §1, §2
# [1] = biological target: T3, VEGFR3 IgD5 (individual recombinant …); test: as above
# Procedure: as §1, §2
binder,measurement,setting,value
"R2C9-11 monoclonal antibody (antibody, V domains shown, Mouse monoclonal antibody purified from hybridoma supernatant; An IgG2a isotype antibody served as its control; also called R2C9-11 mAb) VH: QVQLQQPGAELVKPGASVKLSCKASGYTFTSYWMHWVKQRPGQGLEWIGEINPSNGRTNYNEKFKSKATLTVDKSSSTAYMQLSSLTSEDSAVYYCANLYFDVWGAGTTVTVSS VL: DIVMTQSPSSLSVSAGEKVTMSCKSSQNLLNSGNQKYYLAWYQQKPGQPPKLLIYGASIRESGVPDRFIGSGSGTDFTLTISSVQAEDLAVYFCQSDHSYPYTFGGGTKLEIK",binding result,R2-IgD4-5,no binding (tested: 20 (unit not printed on the sheet))
same,binding result,R3-IgD4,no binding (tested: 10 (unit not printed on the sheet))
same,binding result,R3-IgD7,no binding (tested: 10 (unit not printed on the sheet))
same,binding result,[1],no binding (tested: 10 (unit not printed on the sheet))
